Reference: US20120135912A1 (PERSEID THERAPEUTICS, published 2012)

Biological target: T1, human VLA4-Fc (alpha4-Fc/beta1-Fc heterodimer) (human)
T1 construct: Soluble heterodimer from CHO cells, Protein A purified; also called VLA-Fc
Assay: ELISA, VLA4-Fc coated, 1 mM MnCl2; from EC50 values; ELISA, VLA4-Fc coated on plate, 1 mM MnCl2 (activated VLA4); fold relative to human 2D-VCAM-1
Method: The relative binding affinities of various 2D-VCAM-1 variants to immobilized VLA4-Fc (α4-β1-Fc) heterodimer, relative to a control protein (e.g., Q38L-2D-VCAM-1 or to human 2D-VCAM-1), were deter using a solid-phase ELISA assay. […] The dilution series was transferred into the ELISA plate which was incubated at room temperature for 2 h and subsequently washed with TBS-T. Bound 2D-VCAM protein was detected by incubation with 0.5 ug/ml of biotinylated anti-human VCAM antibody (R&D Systems, Catalog No. BAF809) in TBS-TMC for 1 h at room temperature followed by a TBS-MT (TBS plus 1 mM MnCl2 and 0.02% TWEEN-20) wash and subsequent incubation with 1:2000 dilution of streptavidin-HRP (BD Biosciences, Catalog No. 554066) in TBS-TMC for 30 min at room temperature. […] Fold-improvement in binding was calculated relative to a control protein (e.g., Q38L-2D-VCAM-1 or human 2D-VCAM-1) assayed on the same plate.

T1 sequence (chain, as listed by the source limits assumed, form in doubt, chain 1 of 2): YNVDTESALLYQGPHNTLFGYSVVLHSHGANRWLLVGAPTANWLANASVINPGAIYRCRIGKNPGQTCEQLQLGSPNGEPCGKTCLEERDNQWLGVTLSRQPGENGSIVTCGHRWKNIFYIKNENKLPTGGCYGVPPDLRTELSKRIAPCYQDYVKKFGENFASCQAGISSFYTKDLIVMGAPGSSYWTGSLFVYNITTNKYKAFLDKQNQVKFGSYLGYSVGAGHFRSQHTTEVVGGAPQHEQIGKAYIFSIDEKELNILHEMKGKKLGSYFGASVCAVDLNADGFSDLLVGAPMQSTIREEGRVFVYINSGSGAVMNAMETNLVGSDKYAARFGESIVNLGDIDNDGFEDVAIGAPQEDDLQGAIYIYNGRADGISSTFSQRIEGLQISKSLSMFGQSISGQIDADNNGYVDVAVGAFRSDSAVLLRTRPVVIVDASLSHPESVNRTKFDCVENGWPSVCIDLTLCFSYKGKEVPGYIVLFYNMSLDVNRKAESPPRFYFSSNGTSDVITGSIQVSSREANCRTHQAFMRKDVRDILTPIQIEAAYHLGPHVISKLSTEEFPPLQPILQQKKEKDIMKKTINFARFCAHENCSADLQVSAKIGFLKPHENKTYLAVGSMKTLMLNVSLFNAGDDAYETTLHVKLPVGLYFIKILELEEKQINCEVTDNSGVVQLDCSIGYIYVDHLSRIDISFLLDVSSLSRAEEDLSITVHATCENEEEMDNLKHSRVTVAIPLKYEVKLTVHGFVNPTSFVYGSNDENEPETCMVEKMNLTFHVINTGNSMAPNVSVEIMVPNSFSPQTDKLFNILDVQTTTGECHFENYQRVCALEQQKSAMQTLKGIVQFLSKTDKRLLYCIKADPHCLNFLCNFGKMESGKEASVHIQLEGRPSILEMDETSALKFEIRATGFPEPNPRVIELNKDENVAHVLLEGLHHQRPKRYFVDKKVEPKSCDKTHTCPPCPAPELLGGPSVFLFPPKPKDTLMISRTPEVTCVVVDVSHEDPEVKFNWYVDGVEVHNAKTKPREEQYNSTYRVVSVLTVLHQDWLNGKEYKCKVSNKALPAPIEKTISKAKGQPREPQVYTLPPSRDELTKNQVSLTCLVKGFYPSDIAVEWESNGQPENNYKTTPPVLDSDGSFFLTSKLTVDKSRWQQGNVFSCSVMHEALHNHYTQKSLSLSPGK
T1 sequence (chain, as listed by the source limits assumed, form in doubt, chain 2 of 2): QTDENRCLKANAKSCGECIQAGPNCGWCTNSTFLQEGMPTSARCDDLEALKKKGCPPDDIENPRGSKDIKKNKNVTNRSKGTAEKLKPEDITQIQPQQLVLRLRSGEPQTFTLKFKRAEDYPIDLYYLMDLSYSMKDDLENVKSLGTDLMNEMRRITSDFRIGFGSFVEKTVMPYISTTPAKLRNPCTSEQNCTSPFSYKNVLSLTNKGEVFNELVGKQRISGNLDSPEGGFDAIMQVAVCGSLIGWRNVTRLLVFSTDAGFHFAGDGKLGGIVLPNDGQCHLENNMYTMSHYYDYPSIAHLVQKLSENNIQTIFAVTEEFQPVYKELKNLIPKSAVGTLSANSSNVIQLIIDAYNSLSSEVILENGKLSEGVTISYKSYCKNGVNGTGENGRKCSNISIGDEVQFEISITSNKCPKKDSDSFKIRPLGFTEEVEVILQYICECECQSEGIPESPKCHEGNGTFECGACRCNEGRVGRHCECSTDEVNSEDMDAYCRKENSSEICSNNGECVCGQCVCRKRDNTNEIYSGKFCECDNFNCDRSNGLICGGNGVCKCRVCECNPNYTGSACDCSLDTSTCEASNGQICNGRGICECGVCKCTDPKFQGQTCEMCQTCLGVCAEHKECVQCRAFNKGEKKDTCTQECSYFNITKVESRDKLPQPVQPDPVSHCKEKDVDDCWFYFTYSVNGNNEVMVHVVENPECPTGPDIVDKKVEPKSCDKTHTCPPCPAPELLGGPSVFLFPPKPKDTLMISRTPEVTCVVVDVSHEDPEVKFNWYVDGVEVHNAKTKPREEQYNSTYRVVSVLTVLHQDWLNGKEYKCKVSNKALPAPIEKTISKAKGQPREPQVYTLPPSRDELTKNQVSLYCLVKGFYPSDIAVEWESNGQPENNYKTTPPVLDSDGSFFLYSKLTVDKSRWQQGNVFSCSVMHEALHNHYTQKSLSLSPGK

fold-improvement in binding relative to human 2D-VCAM-1: 298 fold
B1: 2D-VCAM-1 variant Clone 146 (ligand, not shown: small tags and cut ends)
chain: FKIETTPESRYLAQIGDSVSLTCSTTGCESPLFFWRPLLDSPLNGKVTNEGTTSTLTMNPVSFGNEHSYLCTARCESRSLEKGIQVEIYSFPKDPEIHLSGPLEAGKPITVKCSVADVYPFDRLEIDLLKGDHLMKSQEFLEDADRKSLETKSLEVTFTPVIEDIGKVLVCRAKLHIDEMDSVPTVRQAVKELQVYISP
